T1: Tyro3 ECD FNIII 1-FNIII-2
T1 construct: also called FNIII 1 + FNIII 2 fragment of hTyro3 ECD, His-Strep tagged
T1 fragment: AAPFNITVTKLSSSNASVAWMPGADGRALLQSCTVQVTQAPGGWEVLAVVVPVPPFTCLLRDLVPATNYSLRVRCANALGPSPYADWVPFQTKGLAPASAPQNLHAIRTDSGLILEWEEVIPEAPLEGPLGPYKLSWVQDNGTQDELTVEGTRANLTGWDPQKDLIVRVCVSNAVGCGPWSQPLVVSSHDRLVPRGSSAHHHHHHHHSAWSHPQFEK

T2: Ig-1 domain fragment of human Tyro3 ECD, His-Strep tagged (human)
T2 chain: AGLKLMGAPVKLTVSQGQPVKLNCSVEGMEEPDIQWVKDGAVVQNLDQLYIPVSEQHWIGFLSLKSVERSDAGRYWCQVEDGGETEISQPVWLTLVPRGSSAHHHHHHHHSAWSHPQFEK

T3: Ig-1 and Ig-2 domains fragment of human Tyro3 ECD, His-Strep tagged (human)
T3 construct: also called Ig1-Ig2 fragment
T3 chain: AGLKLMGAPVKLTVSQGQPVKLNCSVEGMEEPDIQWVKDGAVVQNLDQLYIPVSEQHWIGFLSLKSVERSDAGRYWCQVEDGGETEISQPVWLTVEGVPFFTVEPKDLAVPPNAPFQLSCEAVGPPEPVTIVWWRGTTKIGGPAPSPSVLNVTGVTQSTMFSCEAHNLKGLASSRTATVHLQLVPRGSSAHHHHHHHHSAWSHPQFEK

T4: cynomolgus Tyro3 ECD, His-Strep tagged
T4 construct: also called cyno TYRO3 ECD 8hisstrep
T4 extracellular domain: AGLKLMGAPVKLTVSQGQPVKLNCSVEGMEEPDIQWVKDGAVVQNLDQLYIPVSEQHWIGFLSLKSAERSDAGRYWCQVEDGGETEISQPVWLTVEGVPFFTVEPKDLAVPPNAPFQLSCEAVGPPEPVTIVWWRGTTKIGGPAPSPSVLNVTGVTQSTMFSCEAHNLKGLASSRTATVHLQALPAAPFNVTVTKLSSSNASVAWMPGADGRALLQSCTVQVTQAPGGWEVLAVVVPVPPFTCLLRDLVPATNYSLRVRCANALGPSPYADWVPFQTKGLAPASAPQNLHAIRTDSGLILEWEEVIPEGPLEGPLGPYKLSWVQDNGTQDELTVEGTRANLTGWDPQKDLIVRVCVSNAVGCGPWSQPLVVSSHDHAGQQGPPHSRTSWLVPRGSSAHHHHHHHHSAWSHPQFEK

T5: Tyro3 ECD Ig2-FNIII 1
T5 construct: also called Ig2 + FNIII 1 fragment of hTyro3 ECD, His-Strep tagged
T5 fragment: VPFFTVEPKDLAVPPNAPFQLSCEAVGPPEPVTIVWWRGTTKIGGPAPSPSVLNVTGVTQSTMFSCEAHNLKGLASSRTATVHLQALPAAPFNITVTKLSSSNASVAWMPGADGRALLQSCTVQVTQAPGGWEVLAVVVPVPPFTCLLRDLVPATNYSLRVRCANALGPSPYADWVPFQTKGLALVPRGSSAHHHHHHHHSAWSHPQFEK


Assays:
[1] = molecular target: T1, Tyro3 ECD FNIII 1-FNIII-2; assay: sandwich ELISA, Strep-tagged fragment captured on StrepMAB plate, scFv 10 µg/mL (Table 17), anti-FLAG-HRP
[2] = molecular target: T2, Ig-1 domain fragment of human Tyro3 …; assay: as above
[3] = molecular target: T3, Ig-1 and Ig-2 domains fragment of human …; assay: as above
[4] = molecular target: T4, cynomolgus Tyro3 ECD, His-Strep tagged; assay: sandwich ELISA, Strep-tagged cynomolgus Tyro3 ECD captured on StrepMAB plate, scFv 3-fold from 10 µg/mL, anti-FLAG-HRP
Procedure: [The procedure below names another species; the source lists this species under the same test.] A double sandwich ELISA was developed. This assay consisted in measuring the binding of the anti-Tyro3 antibodies to be tested on immobilized strep-tagged entire human Tyro3 ECD captured directly on ELISA plate pre-coated with an anti-strep mAb (StrepMAB-Immo coated microplates from IBA biotech). Briefly, the 96 wells of StrepMAB-Immo coated microplate were washed three times with 300 μL of the PBS Tween 0.2% (referred as ELISA washing solution). The capture of an excess of purified strep tagged hTyro3 ECD protein was achieved by a one hour incubation at room temperature. In these experiments, 3 μg of purified protein diluted in PBS, BSA 1% (referred as ELISA diluent solution) were immobilized per well. The wells were washed three times with 300 μL of the washing solution. The non-specific binding sites on the well surface were blocked during 60 min at room temperature with 200 μL/well of blocking solution (PBS, BSA 3%). The wells were washed five times with 300 μL of the washing solution. Then, 100 μl (in duplicates) of the different concentrations of anti-Tyro3 antibodies to be tested diluted in ELISA diluent solution, were added per well and allowed to incubate during 1 hour at room temperature. An Irrelevant control IgG2656 was also added in this experiment. For anti-Tyro3 antibodies in the ScFv format, experiments were performed with 6 concentrations in duplicates (FIG. 3A). For anti-Tyro3 antibodies in the IgG format, experiments were performed with 9 concentrations in duplicates (FIG. 3B). […] For IgGs experiments, starting concentration for first dilution was 3 μg/ml and then dilutions of 3 fold in the ELISA diluent solution were performed. The wells were washed five times with 300 μL of the washing solution. […] The mix was allowed to incubated 60 min at room temperature.

Tyro3 ECD Ig2-FNIII 1 = molecular target: T5, Tyro3 ECD Ig2-FNIII 1; assay: sandwich ELISA, Strep-tagged fragment captured on StrepMAB plate, scFv 10 µg/mL (Table 17), anti-FLAG-HRP

| binding result [1] | binding result [2] | binding result [3] | binding result [4] | binding result (Tyro3 ECD Ig2-FNIII 1) | Binder |
| --- | --- | --- | --- | --- | --- |
| no binding (tested: 10 µg/mL) | binds | binds | binds |  | anti-Tyro3 scFv 2414 (scFv, V domains shown, Tested as a single-chain Fv made in E. coli) VH: EVQLVQSGADVKKPGASLTISCQASGYTFTDYWISWVRQKPGKGLEWMGQINRHASNTMYGPSFQGHVTISADRSTATAYLQWRSLEASDTAMYYCVRSGGATSGGTIPEYYQHWGPGTLVTVSS VL: SYELTQPPSVSVSPGQTARITCSGDALPKKYAYWYQQKSGQAPVLVIYEDWKRASGIPERFSGSSSGTMATLTISGAQVEDEADYYCYSQERKGNYFVFGGGTKLTVL |
| no binding (tested: 10 µg/mL) | binds | binds | binds | binds | anti-Tyro3 scFv 2713 (scFv, V domains shown, Tested as a single-chain Fv made in E. coli) VH: EVQLVQSGADVKKPGASLTISCQASGYTFTDYWISWVRQKPGKGLEWMGRISRHGSQTYYGPSFQGHVTISADRSTATAYLQWRSLEASDTAMYYCVRAGGQTSGGTIPEYYQHWGPGTLVTVSS VL: SYELTQPPSVSVSPGQTARITCSGDALPKKYAYWYQQKSGQAPVLVIYEDHKRASGIPERFSGSSSGTMATLTISGAQVEDEADYYCYSISPAGNYGVFGGGTKLTVL |
| no binding (tested: 10 µg/mL) | binds | binds | binds | no binding (tested: 10 µg/mL) | anti-Tyro3 scFv 2709 (scFv, V domains shown, Tested as a single-chain Fv made in E. coli) VH: EVQLVQSGADVKKPGASLTISCQASGYTFTDYWISWVRQKPGKGLEWMGAISRNGSTTYYGPSFQGHVTISADRSTATAYLQWRSLEASDTAMYYCVRSGGLTSGGTIPEYYQHWGPGTLVPVSS VL: SYELTQPPSVSVSPGQTARITCSGDALPKKYAYWYQQKSGQAPVLVIYEDKKRVSGIPERFSGSSSGTMATLTISGAQVEDEADYYCYSLAVDGNYGVFGGGTKLTVL |
| no binding (tested: 10 µg/mL) | binds | binds | binds | binds | anti-Tyro3 scFv 2415 (scFv, V domains shown, Tested as a single-chain Fv made in E. coli) VH: EVQLVQSGADVKKPGASLTISCQASGYTFTDYWISWVRQKPGKGLEWMGQIRGPASATHYGPSFQGHVTISADRSTATAYLQWRSLEASDTAMYYCVRHQQQTSGGTIPEYYQHWGPGTLVTVSS VL: SYELTQPPSVSVSPGQTARITCSGDALPKKYAYWYQQKSGQAPVLVIYEDKKRISGIPERFSGSSSGTMATLTISGAQVEDEADYYCYSTSTGGNYMVFGGGTKLTVL |
| no binding (tested: 10 µg/mL) | binds | binds | binds | binds | anti-Tyro3 scFv 2412 (scFv, V domains shown, Tested as a single-chain Fv made in E. coli) VH: EVQLVQSGADVKKPGASLTISCQASGYTFTDYWISWVRQKPGKGLEWMGRIRPLLSHTMYGPSFQGHVTISADRSTATAYLQWRSLEASDTAMYYCVRSWLATSGGTIPEYYQHWGPGTLVTVSS VL: SYELTQPPSVSVSPGQTARITCSGDALPKKYAYWYQQKSGQAPVLVIYEDAKRVSGIPERFSGSSSGTMATLTISGAQVEDEADYYCYSASANGNYRVFGGGTKLTVL |
| no binding (tested: 10 µg/mL) | binds | binds | binds | binds | anti-Tyro3 scFv 2711 (scFv, V domains shown, Tested as a single-chain Fv made in E. coli) VH: EVQLVQSGADVKKPGASLTISCQASGYTFTDYWISWVRQKPGKGLEWMGQIRGQHSSTLYGPSFQGHVTISADRSTATAYLQWRSLEASDTAMYYCVRHGASTSGGTIPEYYQHWGPGTLVTVSS VL: SYELTQPPSVSVSPGQTARITCSGDALPKKYAYWYQQKSGQAPVLVIYEDAKRSSGIPERFSGSSSGTMATLTISGAQVEDEADYYCYSLSDSGNYFVFGGGTKLTVL |
| no binding (tested: 10 µg/mL) | binds | no binding (tested: 10 µg/mL) | binds | no binding (tested: 10 µg/mL) | anti-Tyro3 scFv 2717 (scFv, V domains shown, Tested as a single-chain Fv made in E. coli) VH: EVQLVQSGADVKKPGASLTISCQASGYTFTDYWISWVRQKPGKGLEWMGEIFLPPSTTVYGPSFQGHVTISADRSTATAYLQWRSLEASDTAMYYCVRQTRLTSGGTIPEYYQHWGPGTLVTVSS VL: SYELTQPPSVSVSPGQTARITCSGDALPKKYAYWYQQKSGQAPVLVIYEDNKRGSGIPERFSGSSSGTMATLTISGAQVEDEADYYCYSKSPEGNYMVFGGGTKLTVL |
| no binding (tested: 10 µg/mL) | binds | binds | binds |  | anti-Tyro3 scFv 2410 (scFv, V domains shown, Tested as a single-chain Fv made in E. coli) VH: EVQLVQSGADVKKPGASLTISCQASGYTFTDYWISWVRQKPGKGLEWMGQIVPRASRTNYGPSFQGHVTISADRSTATAYLQWRSLEASDTAMYYCVRPYFQTSGGTIPEYYQHWGPGTLVTVSS VL: SYELTQPPSVSVSPGQTARITCSGDALPKKYAYWYQQKSGQAPVLVIYEDEKRASGIPERFSGSSSGTMATLTISGAQVEDEADYYCYSQERNGNYAVFGGGTKLTVL |
